Molecular target: m102.4
Test: ELISA

B1: NiV sG (domain or fragment)
chain: QNYTRSTDNQAVIKDALQGIQQQIKGLADKIGTEIGPKVSLIDTSSTITIPANIGLLGSKISQSTASINENVNEKCKFTLPPLKIHECNISCPNPLPFREYRPQTEGVSNLVGLPNNICLQKTSNQILKPKLISYTLPVVGQSGTCITDPLLAMDEGYFAYSHLERIGSCSRGVSKQRIIGVGEVLDRGDEVPSLFMTNVWTPPNPNTVYHCSAVYNNEFYYVLCAVSTVGDPILNSTYWSGSLMMTRLAVKPKSNGGGYNQHQLALRSIEKGRYDKVMPYGPSGIKQGDTLYFPAVGFLVRTEFKYNDSNCPITKCQYSKPENCRLSMGIRPNSHYILRSGLLKYNLSDGENPKVVFIEISDQRLSIGSPSKIYDSLGQPVFYQASFSWDTMIKFGDVLTVNPLVVNWRNNTVISRPGQSQCPRFNTCPEICWEGVYNDAFLIDRINWISAGVFLDSNQTAENPVFTVFKDNEILYRAQLASEDTNAQKTITNCFLLKNKIWCISLVEIYDTGDNVIRPKLFAVKIPEQCT
Kd: 0.15 nM

— publication PMC8537613 (2021)
